How the values were obtained:
[1] = biological target: GST-IκB (Schistosoma japonicum (Blood fluke)) [GST: P08515]
[2] = biological target: GST-EGF-R (residues 647-688) (Homo sapiens (Human)) (UniProt P00533)
[3] = biological target: GST-ATF2 (substrate of kinase assays, residues not stated) (Homo sapiens (Human)) (UniProt P15336)

relative phosphorylation (PhosphorImager) (relative phosphorylation) (MBP): 0.23
relative phosphorylation (PhosphorImager) (relative phosphorylation) [1]: 0.001
relative phosphorylation (PhosphorImager) (relative phosphorylation) [2]: 0.04
relative phosphorylation (PhosphorImager) (relative phosphorylation) [3]: 1
Substance: GST-p38 MAP kinase (from UniProt Q16539) (enzyme)
